Values joined by “and” are separate entries in the source; they are usually repeats but may differ in a detail not shown here. Equal values may be shown once.
Legend:
[1] = human; no reference given; cited from earlier work
[2] = target: T1, human OCT1*1 (wild-type) (Homo sapiens, UniProt O15245); assay: Cellular uptake ratio, OCT1-overexpressing HEK293 cells vs empty vector; assay type: cell-based; conditions: for OCT1 transport category: based on ratio uptake data at 1 µM
T1 sequence (O15245 1-554): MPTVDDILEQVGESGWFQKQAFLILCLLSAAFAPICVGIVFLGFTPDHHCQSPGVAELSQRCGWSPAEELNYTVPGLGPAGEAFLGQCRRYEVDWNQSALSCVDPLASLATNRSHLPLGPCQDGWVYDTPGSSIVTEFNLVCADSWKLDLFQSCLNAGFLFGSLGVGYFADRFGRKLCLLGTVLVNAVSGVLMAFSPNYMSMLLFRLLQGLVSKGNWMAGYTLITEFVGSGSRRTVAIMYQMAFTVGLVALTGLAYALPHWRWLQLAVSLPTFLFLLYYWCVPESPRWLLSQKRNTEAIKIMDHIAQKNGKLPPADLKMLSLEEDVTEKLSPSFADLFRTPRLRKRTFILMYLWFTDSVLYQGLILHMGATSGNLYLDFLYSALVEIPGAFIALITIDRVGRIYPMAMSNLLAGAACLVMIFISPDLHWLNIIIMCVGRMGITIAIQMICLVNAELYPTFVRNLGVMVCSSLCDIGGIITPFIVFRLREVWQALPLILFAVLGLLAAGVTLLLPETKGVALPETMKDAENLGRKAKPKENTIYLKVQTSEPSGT
Experimental: (§1) The wild-type cell lines of OCT1 and OCT2, as well as the variant cell lines OCT1*2 and *3, were generated using the Flp-In system (Thermo Fisher Scientific, Darmstadt, Germany) as described in previous publications. The cell line overexpressing OCT3 was a kind gift from Dr. Koepsell and Dr. Gorbulev (University of Würzburg, Germany). Cells transfected with the empty pcDNA5/FRT vector were used for the transport experiments as a control cell line. All cells were cultured approximately up to passage 30.
(§2) Forty-eight hours before the transport experiments, 600,000 cells were plated on 12-well plates pre-coated with poly-D-lysine and incubated at 37 °C with 5% CO2. The prepared 12-well plate with cells was positioned on a heating plate pre-warmed to 37 °C. After removing the medium, the cells were washed with 37 °C HBSS+ (10 mM HEPES in Hank’s balanced salt solution, pH 7.4). Then, one pre-defined concentration of a substrate was added to each well. The incubation period was stopped by adding 2 mL of 4 °C HBSS+ and removing the cells from the heating plate. The cells were washed twice with 4 °C HBSS+. For cell lysis, the cells were incubated for 15 min with 500 µL of 80% acetonitrile (LGC Standards, Wesel, Germany), which contained a respective internal standard (Table 1).
(§3) For concentration-dependent transport, the cells were incubated with defined substrate concentrations (0.1, 1, 10, 30, 100, 300, 600, 1000 µM) for the respective pre-defined incubation times. […] The uptake by a transporter was normalised to the uptake by empty vector-transfected cells. […] The results of transport experiments were normalized to the total protein concentration per well. Total protein quantification was performed using a bicinchoninic acid assay with bovine serum albumin as standard.
(§4) The ratios of cellular uptake were calculated by dividing the total uptake of transporter-overexpressing cells by the total uptake into empty vector transfected cells. The concentration-dependent cellular net uptake was used for analysis of transport kinetics by subtracting for each substrate concentration the uptake of empty vector-transfected cells from the uptake of transporter-overexpressing cells. […] The intrinsic clearance Clint was expressed with the ratio of Vmax and KM.

[3] = target: T2, OCT3 (Homo sapiens, UniProt O75751); assay: Cellular uptake ratio, OCT3-overexpressing HEK293 cells vs empty vector; assay type: cell-based; conditions: for OCT3 transport category: based on ratio uptake data at 1 µM
T2 construct: expressed in transfected cells; host or cells: HEK293, stably transfected; gift from Dr. Koepsell and Dr. Gorbulev (University of Würzburg)
T2 sequence (O75751 1-556): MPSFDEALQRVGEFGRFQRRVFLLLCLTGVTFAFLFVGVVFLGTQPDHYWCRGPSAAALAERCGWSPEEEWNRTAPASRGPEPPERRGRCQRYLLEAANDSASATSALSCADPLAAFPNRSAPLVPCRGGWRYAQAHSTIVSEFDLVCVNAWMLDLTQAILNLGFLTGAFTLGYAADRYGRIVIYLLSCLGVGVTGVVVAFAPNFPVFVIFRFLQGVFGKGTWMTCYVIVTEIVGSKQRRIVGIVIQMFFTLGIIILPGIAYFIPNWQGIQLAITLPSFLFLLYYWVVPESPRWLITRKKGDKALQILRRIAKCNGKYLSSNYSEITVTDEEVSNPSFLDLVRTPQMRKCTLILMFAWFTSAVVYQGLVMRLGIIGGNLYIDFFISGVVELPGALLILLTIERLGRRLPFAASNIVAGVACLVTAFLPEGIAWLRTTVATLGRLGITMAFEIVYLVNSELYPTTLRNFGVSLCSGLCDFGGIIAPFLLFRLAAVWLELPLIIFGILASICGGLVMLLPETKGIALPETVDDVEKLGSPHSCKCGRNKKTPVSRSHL
Experimental: as §1, §2, §3, §4

[4] = target: T1, human OCT1*1 (wild-type); assay: Concentration-dependent uptake (transport kinetics) in HEK293 cells overexpressing OCT1 wild-type; conditions: for Clint (±SEM): intrinsic clearance = ratio of Vmax and KM, OCT1 wild-type
[5] = target: T3, wild-type human OCT2 (Homo sapiens, UniProt O15244); assay: Cellular uptake ratio, OCT2-overexpressing HEK293 cells vs empty vector; assay type: cell-based; conditions: based on ratio uptake data at 1 µM
T3 sequence (O15244 1-555): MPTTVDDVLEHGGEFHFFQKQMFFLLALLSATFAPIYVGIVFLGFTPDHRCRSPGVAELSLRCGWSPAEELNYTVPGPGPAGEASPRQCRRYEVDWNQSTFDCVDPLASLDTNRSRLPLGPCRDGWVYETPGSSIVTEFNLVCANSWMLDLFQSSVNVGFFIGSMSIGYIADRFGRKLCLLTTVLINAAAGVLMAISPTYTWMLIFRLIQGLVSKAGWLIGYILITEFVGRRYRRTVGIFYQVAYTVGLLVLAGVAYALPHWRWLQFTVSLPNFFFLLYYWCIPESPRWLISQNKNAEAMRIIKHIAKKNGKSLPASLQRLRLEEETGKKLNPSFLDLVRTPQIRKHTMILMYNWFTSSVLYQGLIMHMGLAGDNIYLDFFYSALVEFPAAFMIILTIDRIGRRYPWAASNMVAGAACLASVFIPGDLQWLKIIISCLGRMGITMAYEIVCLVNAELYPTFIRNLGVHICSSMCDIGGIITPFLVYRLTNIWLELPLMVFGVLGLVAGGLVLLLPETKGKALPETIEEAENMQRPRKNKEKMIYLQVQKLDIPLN
Experimental: as §1, §2, §3, §4

[6] = Human pharmacokinetic background values; assay type: in vivo; conditions: blood, conversion of the KM of about 60 µM, read-out: blood concentration corresponding to KM
[7] = system: hCMEC/D3; conditions: BBB-representing cell line hCMEC/D3; cited from earlier work
[8] = target: OCT1 (wild-type, OCT1*1) (Homo sapiens, UniProt O15245); assay: Concentration-dependent uptake (transport kinetics) in HEK293 cells overexpressing OCT1 wild-type; conditions: human, HEK293 cells stably overexpressing human OCT1*1 (wild-type), pH 7.4, KM (±SEM), net uptake (OCT1 minus empty vector), HEK293, 0.1-1000 µM substrate, Michaelis–Menten
[9] = substrate: Nc1ccn([C@@H]2CS[C@H](CO)O2)c(=O)n1; assay: cells, lysate or membranes; conditions: other: net uptake (OCT1 minus empty vector), HEK293, 0.1-1000 µM substrate, Michaelis–Menten; pH 7.4
[10] = substrate: COc1cc(Cc2cnc(N)nc2N)cc(OC)c1OC; assay: cells, lysate or membranes; conditions: other: net uptake (OCT1 minus empty vector), HEK293, 0.1-1000 µM substrate, Michaelis–Menten; pH 7.4
[11] = substrate: Nc1ccn([C@H]2CC[C@@H](CO)O2)c(=O)n1; assay: cells, lysate or membranes; conditions: other: net uptake (OCT1 minus empty vector), HEK293, 0.1-1000 µM substrate, Michaelis–Menten; pH 7.4
[12] = substrate: N[C@@H](Cc1ccc(O)c(O)c1)C(=O)O; assay: cells, lysate or membranes; conditions: other: net uptake (OCT1 minus empty vector), HEK293, 0.1-1000 µM substrate, Michaelis–Menten; pH 7.4
[13] = substrate: CNS(=O)(=O)Cc1ccc2[nH]cc(CCN(C)C)c2c1; assay: cells, lysate or membranes; conditions: other: net uptake (OCT1 minus empty vector), HEK293, 0.1-1000 µM substrate, Michaelis–Menten; pH 7.4
[14] = substrate: Nc1nc(=O)n([C@@H]2CS[C@H](CO)O2)cc1F; assay: cells, lysate or membranes; conditions: other: net uptake (OCT1 minus empty vector), HEK293, 0.1-1000 µM substrate, Michaelis–Menten; pH 7.4
[15] = substrate: C[N+]1(C)CCC[C@H]1C(=O)[O-]; assay: cells, lysate or membranes; conditions: other: net uptake (OCT1 minus empty vector), HEK293, 0.1-1000 µM substrate, Michaelis–Menten; pH 7.4
[16] = substrate: Nc1nc2c(ncn2COCCO)c(=O)[nH]1; assay: cells, lysate or membranes; conditions: other: net uptake (OCT1 minus empty vector), HEK293, 0.1-1000 µM substrate, Michaelis–Menten; pH 7.4
[17] = substrate: C[C@H]1COc2c(N3CCN(C)CC3)c(F)cc3c(=O)c(C(=O)O)cn1c23; assay: cells, lysate or membranes; conditions: other: net uptake (OCT1 minus empty vector), HEK293, 0.1-1000 µM substrate, Michaelis–Menten; pH 7.4
[18] = substrate: N=C(N)c1ccc(OCCCCCOc2ccc(C(=N)N)cc2)cc1; assay: cells, lysate or membranes; conditions: other: net uptake (OCT1 minus empty vector), HEK293, 0.1-1000 µM substrate, Michaelis–Menten; pH 7.4
[19] = substrate: CCCCC[C@H](O)/C=C/[C@H]1[C@H](O)CC(=O)[C@@H]1C/C=C\CCCC(=O)O; assay: cells, lysate or membranes; conditions: pH 7.4
[20] = substrate: C[C@](N)(Cc1ccc(O)c(O)c1)C(=O)O; assay: cells, lysate or membranes; conditions: other: net uptake (OCT1 minus empty vector), HEK293, 0.1-1000 µM substrate, Michaelis–Menten; pH 7.4
[21] = other: net uptake (OCT1 minus empty vector), HEK293, 0.1-1000 µM substrate, Michaelis–Menten

CNS(=O)(=O)Cc1ccc2[nH]cc(CCN(C)C)c2c1 [Sumatriptan, sumatriptan]
typical human maximum blood concentration [1]: about 30 µg/L | uptake ratio by OCT1 (normalised to empty vector) ([2]; 1 µM and 100 µM substance): up to 30 | OCT1 transport category [2]: ++ (very good substrates of OCTs that have an intrinsic clearance >15 or show an uptake ratio >10) | uptake by OCT3 (normalised to empty vector) ([3]; 1 µM substance): relevant uptake | OCT3 transport category [3]: + (good substrates of OCTs when the intrinsic clearance is between 5–15 or the ratio is 2–10) | Clint (±SEM) [4]: 36.8 ± 7.32 µL/mg Protein/min | OCT2 transport category [5]: ++ (very good substrates of OCTs that have an intrinsic clearance >15 or show an uptake ratio >10) | Km [6]: ~17.8 µg/mL

Nc1nnc(-c2cccc(Cl)c2Cl)c(N)n1 [Lamotrigine, lamotrigine]
OCT3 transport category [3]: +/− (poor transport with a Clint < 5 or ratio between 1–2 with statistical significance (p < 0.05)) | Clint (±SEM) [4]: 2.77 ± 5.66 µL/mg Protein/min | Km [7]: 62 µM

CNC(=C[N+](=O)[O-])NCCSCc1ccc(CN(C)C)o1 [Ranitidin, ranitidine]
OCT1 transport category [2]: ++ (very good substrates of OCTs that have an intrinsic clearance >15 or show an uptake ratio >10) | OCT3 transport category [3]: 0 (no transport by OCT1, OCT2, and OCT3 occurred (i.e., no kinetic parameters or uptake ratio <2 without significance)) | Km [8]: 54.5 ± 7.2 µM | Vmax (±SEM) ([4]; net uptake (OCT1 minus empty vector), HEK293, 0.1-1000 µM substrate, Michaelis–Menten): 1047 ± 123 pmol/mg Protein/min | OCT2 transport category [5]: + (good substrates of OCTs when the intrinsic clearance is between 5–15 or the ratio is 2–10)

B1: human OCT1*1 (wild-type) (Homo sapiens) (protein)
chain: MPTVDDILEQVGESGWFQKQAFLILCLLSAAFAPICVGIVFLGFTPDHHCQSPGVAELSQRCGWSPAEELNYTVPGLGPAGEAFLGQCRRYEVDWNQSALSCVDPLASLATNRSHLPLGPCQDGWVYDTPGSSIVTEFNLVCADSWKLDLFQSCLNAGFLFGSLGVGYFADRFGRKLCLLGTVLVNAVSGVLMAFSPNYMSMLLFRLLQGLVSKGNWMAGYTLITEFVGSGSRRTVAIMYQMAFTVGLVALTGLAYALPHWRWLQLAVSLPTFLFLLYYWCVPESPRWLLSQKRNTEAIKIMDHIAQKNGKLPPADLKMLSLEEDVTEKLSPSFADLFRTPRLRKRTFILMYLWFTDSVLYQGLILHMGATSGNLYLDFLYSALVEIPGAFIALITIDRVGRIYPMAMSNLLAGAACLVMIFISPDLHWLNIIIMCVGRMGITIAIQMICLVNAELYPTFVRNLGVMVCSSLCDIGGIITPFIVFRLREVWQALPLILFAVLGLLAAGVTLLLPETKGVALPETMKDAENLGRKAKPKENTIYLKVQTSEPSGT
Km [9]: 232 ± 43.0 µM | Km [10]: 4.78 ± 1.24 µM | Km [11]: 1194 ± 193 µM | Vmax [11]: 0.00307 µmol/min/mg | Vmax/Km [11]: 2.57 µL/min/mg | Km [12]: 363 ± 163 µM | Km [13]: 60 µM and 58.9 ± 5.1 µM | Vmax [13]: 0.00217 µmol/min/mg | Vmax/Km [13]: 36.8 µL/min/mg | Km [14]: 1123 ± 335 µM | Vmax [14]: 0.0069 µmol/min/mg | Vmax/Km [14]: 6.15 µL/min/mg | Km [15]: 881 ± 910 µM | Km [16]: 142 ± 189 µM | Km [17]: 3326 ± 1458 µM | Km [18]: 124 ± 136 µM | Km ([19]; other: OCT1 wild-type, rounded in discussion): 1000 µM | Km [19, 21]: 1177 ± 744 µM | Vmax [19, 21]: 0.00412 µmol/min/mg | Vmax/Km [19, 21]: 3.5 µL/min/mg | Km [20]: 647 ± 335.6 µM | Vmax [20]: 0.00384 µmol/min/mg | Vmax/Km [20]: 5.94 µL/min/mg
